This passage reports stoichiometry N (ASF1 per H3-H4 dimer (ratio H3:H4:ASF1)) and stoichiometry N results from PMC4330383.

Experiment [1] addresses histones H3-H4 (full-length, recombinant Drosophila melanogaster) (Drosophila melanogaster) (UniProt P02299). Briefly: SEC-MALS; Superdex 200 10/300 GL Increase, 50 mM Tris pH 8.0, 1.5 M NaCl; for H3-H4 alone: tetramer of two H3-H4 dimers.
For experiment [2] the target is unchanged. Kind of experiment: SEC-MALS; Superdex 200 10/300 GL Increase, 50 mM Tris pH 8.0, 0.5 M NaCl, 20°C. For orientation: Size exclusion chromatography separates by hydrodynamic size, large species first.

Sequence of ASF1a (1–156) (Q9Y294 1-156): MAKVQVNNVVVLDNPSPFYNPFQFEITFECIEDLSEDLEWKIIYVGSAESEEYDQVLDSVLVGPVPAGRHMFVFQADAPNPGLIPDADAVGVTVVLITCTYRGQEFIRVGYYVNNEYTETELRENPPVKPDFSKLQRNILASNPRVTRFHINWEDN

For “ASF1a (1–156) (from UniProt Q9Y294 1-156) (domain or fragment; other documents disagree on this pair)”, the stoichiometry N (ASF1 per H3-H4 dimer (ratio H3:H4:ASF1)) in experiment [1] and in experiment [2] was 1 throughout. A word on the stoichiometry N: it is a count of units in the complex or per binding partner. Regarding “histones H3-H4 (full-length, recombinant Drosophila melanogaster) (from UniProt P02299 1-136; P84040 1-103) (complex)”, in experiment [1] (scale: H3-H4 dimers in the oligomer), the stoichiometry N came out at 2.
